# Laboratory results published in patent publication US20120177639A1 (Sanofi, published 2012).
# T1: fibrils of IAPP (UniProt P10997 34-70)
# T1 construct: Insoluble fibrils formed by 72 h at 37 °C; also called Islet Amyloid Polypeptide
# T1 peptide (looked up): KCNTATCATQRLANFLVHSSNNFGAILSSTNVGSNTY
# B1: humanized anti-peptide Aβ antibody VH1VL1 (LP09027) (antibody, human IgG4 S228P, kappa, V domains shown)
# VH: EVQLQQSGPEVVKPGVSVKISCKGSGYTFTDYAMHWVKQSPGKSLEWIGVISTKYGKTNYNPSFQGQATMTVDKSSSTAYMELASLKASDSAIYYCARGDDGYSWGQGTSVTVSS
# VL: EIVMTQTPLSLPVSLGDRASISCRSGQSLVHSNGNTYLHWYLQKPGQSPKLLIYTVSNRFSGVPDRFSGSGSGSDFTLTISRVEAEDLGVYFCSQNTFVPWTFGGGTKLEIKR
# notes: Humanized from murine antibody 13C3; Made in FreeStyle 293-F cells; hetero-tetramer of 150 kDa; also called 13C3-VH1VL1; Antibody 1 VH1VL1
# Columns and labels:
# [1] = target: B1; assay: competitive ELISA, antibody 0.02 µg/ml pre-incubated with the peptide, free antibody read on coated Aβ1-42
# Experimental: The antibody/antigen mixture is then deposited in each well and the microtitration plate is incubated for 1 h at room temperature. The free, uncomplexed antibody is determined according to the same ELISA protocol as described previously.
# fibrils of IAPP = target: T1, fibrils of IAPP; assay: ELISA on coated fibrils (IAPP at 0.5 µg/ml)
# Experimental: 50 μl of fibrils of Aβ1-42 at 1 μg/ml and IAPP at 0.5 μg/ml are deposited in each well of a microtitration plate. The ELISA protocol is applied using serial dilutions of the humanized antibody starting from 10 μg/ml.
Binder,binding result [1],binding result (fibrils of IAPP)
"DAEFRHDSGYEVHHQK (peptide, UniProt P05067 672-687, looked up, range 1-16) [peptide Aβ1-16]",no binding,–
B1,–,no binding
"GSNKGAIIGLM (peptide, UniProt P05067 696-706, looked up, range 25-35) [peptide Aβ25-35]",no binding,–
